US20090318673A1 (NEC SOFT, published 2009)

Target: the molecule itself
Test: X-ray crystal structure, 1.9 A, space group C2221
Source text: Programs, MOSFLM and SCALA (CCP4) were used in the data processing of the detected diffraction pattern and intensity data.

B1: GFP-like fluorescent protein from Chiridius poppei, CpYGFP (recombinant, wild type) (other)
chain: MTTFKIESRIHGNLNGEKFELVGGGVGEEGRLEIEMKTKDKPLAFSPFLLSHCMGYGFYHFASFPKGTKNIYLHAATNGGYTNTRKEIYEDGGILEVNFRYTYEFNKIIGDVECIGHGFPSQSPIFKDTIVKSCPTVDLMLPMSGNIIASSYARAFQLKDGSFYTAEVKNNIDFKNPIHESFSKSGPMFTHRRVEETHTKENLAMVEYQQVFNSAPRDM
modifications: G55-Y56-G57 cyclised and oxidised to the p-hydroxybenzylideneimidazolinone fluorescent moiety
notes: Expressed in E. coli from pET101-NFP, purified and crystallised; In the crystal (space group C2221, PDB 2DD7) it is seen as a dimer; also called recombinant CpYGFP; wild-type CpYGFP
binding result: binds
